Test results: PMC8887487 (Nucleic Acids Research, 2022)

T1: 256–595 domain of Dicer (human, UniProt Q9UPY3 256-595)
T1 sequence: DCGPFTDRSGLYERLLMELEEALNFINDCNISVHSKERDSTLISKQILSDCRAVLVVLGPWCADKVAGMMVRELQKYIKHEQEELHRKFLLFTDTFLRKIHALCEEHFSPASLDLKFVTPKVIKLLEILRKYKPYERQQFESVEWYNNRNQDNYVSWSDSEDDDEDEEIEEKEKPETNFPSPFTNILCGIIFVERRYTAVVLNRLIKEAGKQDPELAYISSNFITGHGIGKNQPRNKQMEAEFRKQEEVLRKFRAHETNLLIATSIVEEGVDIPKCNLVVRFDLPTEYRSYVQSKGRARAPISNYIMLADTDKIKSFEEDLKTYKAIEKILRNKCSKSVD

B1: His6-tagged TRBP protein (natural protein)
chain: MSEEEQGSGTTTGCGLPSIEQMLAANPGKTPISLLQEYGTRIGKTPVYDLLKAEGQAHQPNFTFRVTVGDTSCTGQGPSKKAAKHKAAEVALKHLKGGSMLEPALEDSSSFSPLDSSLPEDIPVFTAAAAATPVPSVVLTRSPPMELQPPVSPQQSECNPVGALQELVVQKGWRLPEYTVTQESGPAHRKEFTMTCRVERFIEIGSGTSKKLAKRNAAAKMLLRVHTVPLDARDGNEVEPDDDHFSIGVGSRLDGLRNRGPGCTWDSLRNSVGEKILSLRSCSLGSLGALGPACCRVLSELSEEQAFHVSYLDIEELSLSGLCQCLVELSTQPATVCHGSATTREAARGEAARRALQYLKIMAGSK
B2: TRBP-dsRBD3 (262–366) (domain or fragment)
chain: GCTWDSLRNSVGEKILSLRSCSLGSLGALGPACCRVLSELSEEQAFHVSYLDIEELSLSGLCQCLVELSTQPATVCHGSATTREAARGEAARRALQYLKIMAGSK

How the values were obtained:
[1] = target: GST (glutathione-S-transferase)-tagged RPAP3 (human, UniProt Q9H6T3 1-665); experiment: pull-down
Sequence of GST (glutathione-S-transferase)-tagged RPAP3 (Q9H6T3 whole entry, the tested form may be a part): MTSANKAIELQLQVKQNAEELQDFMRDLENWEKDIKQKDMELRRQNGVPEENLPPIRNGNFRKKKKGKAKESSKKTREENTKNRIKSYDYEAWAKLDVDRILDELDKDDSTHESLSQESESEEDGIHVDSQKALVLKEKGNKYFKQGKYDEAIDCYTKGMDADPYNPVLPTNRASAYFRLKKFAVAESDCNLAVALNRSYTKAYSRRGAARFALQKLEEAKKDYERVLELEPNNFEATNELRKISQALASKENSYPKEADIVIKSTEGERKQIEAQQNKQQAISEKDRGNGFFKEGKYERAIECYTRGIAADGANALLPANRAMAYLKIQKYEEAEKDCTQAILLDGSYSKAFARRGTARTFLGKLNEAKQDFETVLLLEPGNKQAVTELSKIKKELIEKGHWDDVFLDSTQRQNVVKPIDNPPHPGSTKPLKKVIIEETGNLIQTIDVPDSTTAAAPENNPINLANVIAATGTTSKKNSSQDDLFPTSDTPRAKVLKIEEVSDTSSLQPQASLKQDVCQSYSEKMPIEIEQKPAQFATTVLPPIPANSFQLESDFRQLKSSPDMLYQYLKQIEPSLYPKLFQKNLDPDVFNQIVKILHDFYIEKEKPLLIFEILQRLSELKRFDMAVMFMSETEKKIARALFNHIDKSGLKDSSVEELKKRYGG

[2] = target: T1, 256–595 domain of Dicer; experiment: SEC

| Binder | binding result [1] | binding result [2] |
| --- | --- | --- |
| B1 | binds | – |
| B2 | – | binds |
